The results in this text go back to patent EP0607103A2, “Somatostatin analogs containing chelating groups and their radiolabeled compositions” (SANDOZ LTD., priority 1993, dated 1994).

For orientation: tissue uptake means the share of the injected amount in each gram of the tissue. Low readings indicate low uptake, high ones high uptake.

Details of the series: species or system rats. To be noted: rat, in vivo. As to the method: The affinity of the CHELATES OF THE INVENTION for somatostatin receptors can also be shown by in vivo testing, according to standard test methods, e.g. as disclosed in GB-A-2, 225,579. For example the compound of Example 2 gives a tumor accumulation of 1.9 ± 0.4 % injected dose per g (n = 6) 4 hours after injection into rats bearing an exocrine pancreatic tumor.

As to `C[C@@H](O)[C@@H]1NC(=O)[C@H](CCCCN)NC(=O)[C@@H](Cc2c[nH]c3ccccc23)NC(=O)[C@H](Cc2ccccc2)NC(=O)[C@@H](NC(=O)[C@@H](Cc2ccccc2)NC(=S)Nc2ccc(CC(CNCCN)CNCCN)cc2)CSSC[C@@H](C(=O)N[C@H](CO)[C@@H](C)O)NC1=O` [Example 2, ^99mTc labelled compound of Example 1, metal not drawn], the tissue uptake at 4 h was 1.9 ± 0.4 %ID/g.
